The nanobody polyreactivity screen of Harvey et al. (2022)

Test: yeast display, Sf9 membrane polyspecificity reagent, FACS + sequencing; frameworks hold sequencing errors
Outline: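 After 36–48 hours of galactose induction, yeast (Saccharomyces cerevisiae BJ5465) displaying a synthetic nanobody library were stained at 4 °C for 1 hour with 10% biotinylated, detergent-solubilized Sf9 membrane reagent. Streptavidin microbeads enriched the stained cells before FACS sorting into low and high (top ~1%) gates on anti-HA and streptavidin fluorescence. Each clone's polyreactivity label reflects its gate of origin.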

| Sequence | polyreactivity (PSR sort gate) |
| --- | --- |
| QVQLVESGGGLVQAGGSLRLSCAASGFTLQQYTMGWYIQAPGKERELVAAISTSGVRTYYADSVKGRFTISRDNAKNTVYLQMNSLKPEDTAVYYCNAAWVYGIGWYSGYDYWGQGTQVTVSS | high polyreactivity |
| QVQLVESGGGLVQAGGSLRLSCAASGFTLRGNAMGWYRQAPGKESELVAAISTGGSTYNADSVKGRFTISRDNAKITVYLQMNSLNPEDTAVYYCARRGWFHYRYYYWGQGSQVTVSS | high polyreactivity |
| QVQLVESGGGLVQAGGSLRLSCAASGFTLRRNAMGWYRQAPGKERELVAAISSSGSTYYADSVKGRFTISRDNAKNTVYLQMNSLKPEDTAVYYCAASATYKVRGGYWGQGTQVTVSS | high polyreactivity |
| QVQLVESGGGLVQAGGSLRLSCAASGFTLRSNAMGWYRQAPGKERELVASITDGTSTNYADSVKGRFTISRDNAKNTVYLQMNSLKPEDTAVYYCATRHPARRDYWGQGTQVTVSS | low polyreactivity |
| QVQLVESGGGLVQAGGSLRLSCAASGFTLRVNAMGWYRQAPGKERELVAAISDSGTNTYYADSVKGRFTISRDNAKNTVYLQMNSLKPEDTAVYYCATAVYLVIFEYDYWGQGTQVTVSS | low polyreactivity |
| QVQLVESGGGLVQAGGSLRLSCAASGFTLRVNDMGWYRQAPGKERELVAGITVSGGSTYYADSVKGRFTISRDNAKNTVYLQMNSLKPEDTAVYYCNADNYENATGMDYWGQGTQVTVSS | low polyreactivity |
| QVQLVESGGGLVQAGGSLRLSCAASGFTLSGNAMGWYRQAPGKERELVAAINGSGGSTYYADSVKGRFTISRDNAKNTVYLQMNSLKPEDTAVYYCAAAGSYGQAYSIFTLDSWGPGTQVTVSS | low polyreactivity |
| QVQLVESGGGLVQAGGSLRLSCAASGFTLSSYVMGWYRQAPGKERELVAAITSSGGSTYYADSVKGRFTISRDNAKNTVYLQMNSLKPEDTAVYYCNAVWWYKLYFDDDYWGQGTQVNVSS | high polyreactivity |
| QVQLVESGGGLVQAGGSLRLSCAASGFTLTGNAMGWYRQAPGKERELVAAISRNGGSTFYADSVKGRFTISRDNAKNTVYLQMNSLKPEDTAVYYCNASRFRHSAYKYDSWGQGTQVTVSS | high polyreactivity |
| QVQLVESGGGLVQAGGSLRLSCAASGFTLTLRYAMGLYRQAPGKERELVAAISSGGRTKYADSVKGRFTISRDNAKNTVYLQMNSRKPEDTAVYYCNAVTQREYEEGDYWGQGTQVTVSS | high polyreactivity |
| QVQLVESGGGLVQAGGSLRLSCAASGFTLTRNAMGWYRQAPGKERELVAAISWSGGTTYYADSVKGRFTISRDNAKNTVYLQMNSLKPEDTADYYCNTASWRAQYYYWGQGTQVTVSS | high polyreactivity |
| QVQLVESGGGLVQAGGSLRLSCAASGFTLVKYVMGWYRPAPGKERELVAAINRSGTSTYYADSVKGRFTISRDNAKNTVYLQMNSLKPEDTAVYYCAAERSRNFDWGQGTQVTVSS | high polyreactivity |
| QVQLVESGGGLVQAGGSLRLSCAASGFTLYVNAKGWYRQAPGKERELVAAISWSGGSTYYADSVKGRFTISRDNAKNTVYLQMNSLKPEDTAVYYCNAKYHRRLQWGTRYYYWGQGTQVTVSS | high polyreactivity |
| QVQLVESGGGLVQAGGSLRLSCAASGFTSGQYAMGWYRQAPGKERELVAAISWSGGSTYYADSVKGRFTISRDNAKNTVYLQMNSLKPEDTAVYYCAAGKTPQKYGGFNYWGQGTQVTVSS | high polyreactivity |
| QVQLVESGGGLVQAGGSLRLSCAASGFTSNYYAMGGYRQAAGKERELVAAITTGGSTHYADSVQGRFTISRDNAKNTVYVQMNSLKPEDTAVYYCAADLKDTRLFPWFCEYDYWGQGTQVTVSS | low polyreactivity |
| QVQLVESGGGLVQAGGSLRLSCAASGFTSRYYAMGWYRQAPGKERELVAAISSSGGRTYYADSVKGRFTISRDNAKNTVYLQMNSLKPEDTAVYYCNTGIHARYGGLYGYWGQGTQVTVSS | high polyreactivity |
| QVQLVESGGGLVQAGGSLRLSCAASGFTTAYAMGWYRQAPGKERELVAAISSGGSTYYADSVKGRFTISRDNAKNTVYLQMNSLKPEDTAVYYCATGPYYGYDEFDYWGQGTQVTVSS | low polyreactivity |
